Starred links: 1 amine or outer side, 2 acyl side, 3 side chain; linkers in the order of their positions; H or OH if unused. Non-standard residues stand in square brackets, D forms with d. Groups on a side chain read outwards from the residue. *: point of attachment. ButanoicP = (R)-4-(pyrrolidin-2-yl)butanoic acid, O=C(CCC[C@@H]1CCCN1[*:1])[*:2]; C18 diacid = O=C(O)CCCCCCCCCCCCCCCCC(=O)*; Dip = N[C@H](C(=O)O)C(c1ccccc1)c1ccccc1; Palmitoyl = CCCCCCCCCCCCCCCC(=O)*; NMeF = CN[C@@H](Cc1ccccc1)C(=O)O; β3hF = N[C@H](CC(=O)O)Cc1ccccc1; (n-hexyl)Gly = n-hexyl glycine; Tle = CC(C)(C)[C@H](N)C(=O)O; hLeu = CC(C)CC[C@H](N)C(=O)O; Isovaleryl = CC(C)CC(=O)*; (Me)Leu = methyl-leucine; AEEA = NCCOCCOCC(=O)O; Ahx = NCCCCCC(=O)O
T1: human ferroportin (SLC40A1) fused in frame with GFP, stably expressed in HEK293 cells (human, UniProt Q9NP59 1-571)
T1 sequence (looked up): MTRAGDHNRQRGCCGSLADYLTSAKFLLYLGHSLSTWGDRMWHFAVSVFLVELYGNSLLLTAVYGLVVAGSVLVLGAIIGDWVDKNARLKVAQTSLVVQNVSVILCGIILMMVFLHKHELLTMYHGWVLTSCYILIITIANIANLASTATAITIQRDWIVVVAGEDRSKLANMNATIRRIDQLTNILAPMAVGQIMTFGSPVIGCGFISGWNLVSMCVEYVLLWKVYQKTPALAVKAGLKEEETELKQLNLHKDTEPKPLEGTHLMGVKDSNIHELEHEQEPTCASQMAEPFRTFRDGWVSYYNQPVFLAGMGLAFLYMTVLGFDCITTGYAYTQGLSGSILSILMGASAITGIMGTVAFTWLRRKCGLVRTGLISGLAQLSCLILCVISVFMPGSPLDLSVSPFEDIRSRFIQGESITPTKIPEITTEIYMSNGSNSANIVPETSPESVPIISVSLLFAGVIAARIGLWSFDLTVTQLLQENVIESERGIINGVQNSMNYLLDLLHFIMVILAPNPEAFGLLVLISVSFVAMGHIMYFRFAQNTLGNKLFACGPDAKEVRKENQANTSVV

B1: Isovaleric Acid-E-T-H-[Dpa]-P-[(n-hexyl)Gly]-I-[Lys(Ahx_Palm)]-[bhPhe]-NH2 (peptide)
peptide: Isovaleryl-ETH[Dip]P[(n-hexyl)Gly]IK([Ahx-Palmitoyl])[β3hF]-NH2
B2: Isovaleric Acid-E-T-H-[Dpa]-[ButanoicP]-[bhPhe]-[Lys(Ahx_Palm)]-NH2 (peptide)
peptide: Isovaleryl-ETH[Dip][ButanoicP][β3hF]K([Ahx-Palmitoyl])-NH2
SMILES: CCCCCCCCCCCCCCCC(=O)NCCCCCC(=O)NCCCC[C@H](NC(=O)C[C@H](Cc1ccccc1)NC(=O)CCC[C@@H]1CCCN1C(=O)[C@@H](NC(=O)[C@H](Cc1c[nH]cn1)NC(=O)[C@@H](NC(=O)[C@H](CCC(=O)O)NC(=O)CC(C)C)[C@@H](C)O)C(c1ccccc1)c1ccccc1)C(N)=O
B3: Isovaleric Acid-L-T-H-[Dpa]-P-[(Me)Leu]-I-[Lys(Ahx_Palm)]-L-NH2 (peptide)
peptide: Isovaleryl-LTH[Dip]P[(Me)Leu]IK([Ahx-Palmitoyl])L-NH2
B4: Isovaleric Acid-E-T-H-[Dpa]-P-A-I-[Lys(Ahx_Palm)]-[bhPhe]-NH2 (peptide)
peptide: Isovaleryl-ETH[Dip]PAIK([Ahx-Palmitoyl])[β3hF]-NH2
SMILES: CCCCCCCCCCCCCCCC(=O)NCCCCCC(=O)NCCCC[C@H](NC(=O)[C@@H](NC(=O)[C@H](C)NC(=O)[C@@H]1CCCN1C(=O)[C@@H](NC(=O)[C@H](Cc1c[nH]cn1)NC(=O)[C@@H](NC(=O)[C@H](CCC(=O)O)NC(=O)CC(C)C)[C@@H](C)O)C(c1ccccc1)c1ccccc1)[C@@H](C)CC)C(=O)N[C@H](CC(N)=O)Cc1ccccc1
B5: Isovaleric Acid-L-T-H-[Dpa]-P-L-I-[Lys(Ahx_Palm)]-[(Me)Leu]-NH2 (peptide)
peptide: Isovaleryl-LTH[Dip]PLIK([Ahx-Palmitoyl])[(Me)Leu]-NH2
B6: Isovaleric Acid-E-T-H-[Dpa]-P-[hLeu]-I-[Lys(Ahx_Palm)]-[bhPhe]-NH2 (peptide)
peptide: Isovaleryl-ETH[Dip]P[hLeu]IK([Ahx-Palmitoyl])[β3hF]-NH2
SMILES: CCCCCCCCCCCCCCCC(=O)NCCCCCC(=O)NCCCC[C@H](NC(=O)[C@@H](NC(=O)[C@H](CCC(C)C)NC(=O)[C@@H]1CCCN1C(=O)[C@@H](NC(=O)[C@H](Cc1c[nH]cn1)NC(=O)[C@@H](NC(=O)[C@H](CCC(=O)O)NC(=O)CC(C)C)[C@@H](C)O)C(c1ccccc1)c1ccccc1)[C@@H](C)CC)C(=O)N[C@H](CC(N)=O)Cc1ccccc1
B7: Isovaleric Acid-L-T-H-[Dpa]-P-A-I-[Lys(Ahx_Palm)]-[(Me)Leu]-NH2 (peptide)
peptide: Isovaleryl-LTH[Dip]PAIK([Ahx-Palmitoyl])[(Me)Leu]-NH2
B8: Isovaleric Acid-L-T-H-[Dpa]-P-A-I-[Lys(1PEG2_1PEG2_Ahx_C18_Diacid)]-[bhPhe]-[(D)Lys]-NH2 (peptide)
peptide: Isovaleryl-LTH[Dip]PAIK([AEEA-AEEA-Ahx-C18 diacid])[β3hF][dK]-NH2
B9: Isovaleric Acid-E-T-H-[Dpa]-P-A-[Lys(Ac)]-NH2 (peptide)
peptide: Isovaleryl-ETH[Dip]PAK(Ac)-NH2
SMILES: CC(=O)NCCCC[C@H](NC(=O)[C@H](C)NC(=O)[C@@H]1CCCN1C(=O)[C@@H](NC(=O)[C@H](Cc1c[nH]cn1)NC(=O)[C@@H](NC(=O)[C@H](CCC(=O)O)NC(=O)CC(C)C)[C@@H](C)O)C(c1ccccc1)c1ccccc1)C(N)=O
B10: Isovaleric Acid-R-T-H-[Dpa]-P-A-I-[Lys(1PEG2_1PEG2_Ahx_C18_Diacid)]-[bhPhe]-[(D)Lys]-NH2 (peptide)
peptide: Isovaleryl-RTH[Dip]PAIK([AEEA-AEEA-Ahx-C18 diacid])[β3hF][dK]-NH2
SMILES: CC[C@H](C)[C@H](NC(=O)[C@H](C)NC(=O)[C@@H]1CCCN1C(=O)[C@@H](NC(=O)[C@H](Cc1c[nH]cn1)NC(=O)[C@@H](NC(=O)[C@H](CCCNC(=N)N)NC(=O)CC(C)C)[C@@H](C)O)C(c1ccccc1)c1ccccc1)C(=O)N[C@@H](CCCCNC(=O)COCCOCCNC(=O)COCCOCCNC(=O)CCCCCNC(=O)CCCCCCCCCCCCCCCCC(=O)O)C(=O)N[C@H](CC(=O)N[C@H](CCCCN)C(N)=O)Cc1ccccc1
B11: Isovaleric Acid-L-T-H-[Dpa]-P-[(Me)Leu]-I-[Lys(Ahx_Palm)]-[(Me)Phe]-NH2 (peptide)
peptide: Isovaleryl-LTH[Dip]P[(Me)Leu]IK([Ahx-Palmitoyl])[NMeF]-NH2
B12: Isovaleric Acid-E-T-H-[Dpa]-P-L-I-[Lys(Ahx_Palm)]-[(Me)Phe]-NH2 (peptide)
peptide: Isovaleryl-ETH[Dip]PLIK([Ahx-Palmitoyl])[NMeF]-NH2
B13: Isovaleric Acid-E-T-H-[Dpa]-P-A-I-[(D)Lys]-[Lys(Ac)]-NH2 (peptide)
peptide: Isovaleryl-ETH[Dip]PAI[dK]K(Ac)-NH2
B14: Isovaleric Acid-E-T-H-[Dpa]-P-[t-BuGly]-I-[Lys(Ahx_Palm)]-[bhPhe]-NH2 (peptide)
peptide: Isovaleryl-ETH[Dip]P[Tle]IK([Ahx-Palmitoyl])[β3hF]-NH2
SMILES: CCCCCCCCCCCCCCCC(=O)NCCCCCC(=O)NCCCC[C@H](NC(=O)[C@@H](NC(=O)[C@@H](NC(=O)[C@@H]1CCCN1C(=O)[C@@H](NC(=O)[C@H](Cc1c[nH]cn1)NC(=O)[C@@H](NC(=O)[C@H](CCC(=O)O)NC(=O)CC(C)C)[C@@H](C)O)C(c1ccccc1)c1ccccc1)C(C)(C)C)[C@@H](C)CC)C(=O)N[C@H](CC(N)=O)Cc1ccccc1
B15: Isovaleric Acid-E-T-H-[Dpa]-P-V-I-[Lys(Ahx_Palm)]-[bhPhe]-NH2 (peptide)
peptide: Isovaleryl-ETH[Dip]PVIK([Ahx-Palmitoyl])[β3hF]-NH2
SMILES: CCCCCCCCCCCCCCCC(=O)NCCCCCC(=O)NCCCC[C@H](NC(=O)[C@@H](NC(=O)[C@@H](NC(=O)[C@@H]1CCCN1C(=O)[C@@H](NC(=O)[C@H](Cc1c[nH]cn1)NC(=O)[C@@H](NC(=O)[C@H](CCC(=O)O)NC(=O)CC(C)C)[C@@H](C)O)C(c1ccccc1)c1ccccc1)C(C)C)[C@@H](C)CC)C(=O)N[C@H](CC(N)=O)Cc1ccccc1
B16: Isovaleric Acid-E-T-H-[Dpa]-P-[t-BuAlanine]-I-[Lys(Ahx_Palm)]-[bhPhe]-NH2 (peptide)
peptide: Isovaleryl-ETH[Dip]P[tBuAlanine]IK([Ahx-Palmitoyl])[β3hF]-NH2
B17: Isovaleric Acid-L-T-H-[Dpa]-P-L-I-[Lys(Ahx_Palm)]-[(Me)Phe]-NH2 (peptide)
peptide: Isovaleryl-LTH[Dip]PLIK([Ahx-Palmitoyl])[NMeF]-NH2
SMILES: CCCCCCCCCCCCCCCC(=O)NCCCCCC(=O)NCCCC[C@H](NC(=O)[C@@H](NC(=O)[C@H](CC(C)C)NC(=O)[C@@H]1CCCN1C(=O)[C@@H](NC(=O)[C@H](Cc1c[nH]cn1)NC(=O)[C@@H](NC(=O)[C@H](CC(C)C)NC(=O)CC(C)C)[C@@H](C)O)C(c1ccccc1)c1ccccc1)[C@@H](C)CC)C(=O)N(C)[C@@H](Cc1ccccc1)C(N)=O
B18: Isovaleric Acid-E-T-H-[Dpa]-P-A-I-[Lys(1Peg2_1Peg2_Ahx_C18_Diacid)]-NH2 (peptide)
peptide: Isovaleryl-ETH[Dip]PAIK([AEEA-AEEA-Ahx-C18 diacid])-NH2
B19: Isovaleric Acid-[(D)Arg]-T-H-[Dpa]-P-A-I-[Lys(1PEG2_1PEG2_Ahx_C18_Diacid)]-[bhPhe]-[(D)Lys]-NH2 (peptide)
peptide: Isovaleryl-[dR]TH[Dip]PAIK([AEEA-AEEA-Ahx-C18 diacid])[β3hF][dK]-NH2
SMILES: CC[C@H](C)[C@H](NC(=O)[C@H](C)NC(=O)[C@@H]1CCCN1C(=O)[C@@H](NC(=O)[C@H](Cc1c[nH]cn1)NC(=O)[C@@H](NC(=O)[C@@H](CCCNC(=N)N)NC(=O)CC(C)C)[C@@H](C)O)C(c1ccccc1)c1ccccc1)C(=O)N[C@@H](CCCCNC(=O)COCCOCCNC(=O)COCCOCCNC(=O)CCCCCNC(=O)CCCCCCCCCCCCCCCCC(=O)O)C(=O)N[C@H](CC(=O)N[C@H](CCCCN)C(N)=O)Cc1ccccc1
B20: Isovaleric Acid-E-T-H-[Dpa]-P-[Lys(Ac)]-NH2 (peptide)
peptide: XETHXPX
modifications: N-term Isovaleric Acid; Dpa4; Lys(Ac)6; C-term NH2
B21: Isovaleric Acid-E-T-H-[Dpa]-P-A-I-[Lys(Ac)]-NH2 (peptide)
peptide: Isovaleryl-ETH[Dip]PAIK(Ac)-NH2
SMILES: CC[C@H](C)[C@H](NC(=O)[C@H](C)NC(=O)[C@@H]1CCCN1C(=O)[C@@H](NC(=O)[C@H](Cc1c[nH]cn1)NC(=O)[C@@H](NC(=O)[C@H](CCC(=O)O)NC(=O)CC(C)C)[C@@H](C)O)C(c1ccccc1)c1ccccc1)C(=O)N[C@@H](CCCCNC(C)=O)C(N)=O
B22: Isovaleric Acid-E-T-H-[Dpa]-P-L-I-[(D)Lys]-[bhPhe]-[Lys(Ahx_Palm)]-[(D)Lys]-L-NH2 (peptide)
peptide: Isovaleryl-ETH[Dip]PLI[dK][β3hF]K([Ahx-Palmitoyl])[dK]L-NH2
SMILES: CCCCCCCCCCCCCCCC(=O)NCCCCCC(=O)NCCCC[C@H](NC(=O)C[C@H](Cc1ccccc1)NC(=O)[C@@H](CCCCN)NC(=O)[C@@H](NC(=O)[C@H](CC(C)C)NC(=O)[C@@H]1CCCN1C(=O)[C@@H](NC(=O)[C@H](Cc1c[nH]cn1)NC(=O)[C@@H](NC(=O)[C@H](CCC(=O)O)NC(=O)CC(C)C)[C@@H](C)O)C(c1ccccc1)c1ccccc1)[C@@H](C)CC)C(=O)N[C@H](CCCCN)C(=O)N[C@@H](CC(C)C)C(N)=O
B23: Isovaleric Acid-E-T-H-[Dpa]-P-[DiethylGly]-I-[Lys(Ahx_Palm)]-[bhPhe]-NH2 (peptide)
peptide: Isovaleryl-ETH[Dip]P[DiethylGly]IK([Ahx-Palmitoyl])[β3hF]-NH2
B24: Isovaleric Acid-L-T-H-[Dpa]-P-A-I-[Lys(Ahx_Palm)]-[(Me)Phe]-NH2 (peptide)
peptide: Isovaleryl-LTH[Dip]PAIK([Ahx-Palmitoyl])[NMeF]-NH2
SMILES: CCCCCCCCCCCCCCCC(=O)NCCCCCC(=O)NCCCC[C@H](NC(=O)[C@@H](NC(=O)[C@H](C)NC(=O)[C@@H]1CCCN1C(=O)[C@@H](NC(=O)[C@H](Cc1c[nH]cn1)NC(=O)[C@@H](NC(=O)[C@H](CC(C)C)NC(=O)CC(C)C)[C@@H](C)O)C(c1ccccc1)c1ccccc1)[C@@H](C)CC)C(=O)N(C)[C@@H](Cc1ccccc1)C(N)=O

target: T1, human ferroportin (SLC40A1) fused in …; experiment: cell-based or functional assay

Binder	FPN EC50 [µM]
B1	0.427
B2	0.0712
B3	2.76
B4	0.0319
B5	0.287
B6	0.15
B7	0.508
B8	0.0657
B9	35.7
B10	0.0485
B11	2.29
B12	0.0272
B13	0.814
B14	0.0403
B15	0.199
B16	0.0342
B17	0.764
B18	0.593
B19	0.732
B20	8.41
B21	1.04
B22	0.0045
B23	0.0697
B24	1.75
